Data as given in the supplement of paper PMC12764529.
± gives the half width of the 95% confidence interval.

Experiment: folding stability dG unfold (combined trypsin and chymotrypsin); higher = more stable
Method in brief: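 Unfolding free energy was derived, per protease or combined, by relating Bayesian-fitted K50 values from sequencing counts to a sequence-predicted unfolded-state K50 and a shared folded-state K50. The underlying digests exposed cysteine-free mini-proteins under 80 residues, in a PA-tagged cDNA display construct, to trypsin and chymotrypsin at 11 threefold-diluted concentrations and to a no-protease condition. A filter kept only designs with AlphaFold2 dimer inter-PAE above 15.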

Row | Sequence | folding stability dG unfold
1 | SAGDALKDLAPDVEITPSSFPFAFPPSRPVLAASIVAHPDNTITVFLTEVHPDGGARVLVYTLHLSDKSAGG [r19_125_TrMRF] | 3.05 ± 0.14 kcal/mol
2 | SAGGGSTVTTFDPSTGKTTVSIGTDPATGERTVTIVLKNGTPVTVPGPFPSVEEAEAAAAAAAAAAASAGGS [r16_319_JUSTAS] | 0.818 ± 0.097 kcal/mol
3 | SAGGSAPIRIIKDPEKGTIMIRVPGPITVNQELKLRDENGKPWEIKNVEVERVGGRLIITMKVEPASAGGSA [r15_838_TrROS] | 1.29 ± 0.11 kcal/mol
4 | SAGGMRPMVVTVRYPDGSVQTLVADYDPDTDVIRFPFPSDGTERDIPAGEWREDPDYQVLSETPLSLESAGG [r13_994_JUSTAS] | 0.967 ± 0.052 kcal/mol
5 | SAGGSAGGSAGGSMKEVTITLTDPETGKVSTLVLKLSPEEIEKAAEELAKSSGKKVTIRSAGGSAGGSAGGS [r4_301_JUSTAS] | 1.78 ± 0.13 kcal/mol
6 | GSVTIELVVPKGVDIPLALLAGIASTGKGKVTARISNPLSGKEIEVTFPGGGLGEAGVTEGINVVRLTVYGS [r1_238_TrMRF] | 1.2 ± 0.19 kcal/mol
7 | SAGGSAGGSAGKPIIKVKIIEKKDGYLKIEIEDEKTGETKTITLKPGQKLEIKLELVKEPSAGGSAGGSAGG [r11_738_TrROS_Hall] | 1.62 ± 0.11 kcal/mol
8 | SAPAVLLEEPDTLVEVEKLPDGSLLIRRVTKFPDGSVTVEISVIYPGGSLSVLESVTLNVPPEEPLPLLSAG [r14_42_JUSTAS] | 1.91 ± 0.073 kcal/mol
9 | SAGGSMIPLTVTRYDPNSDKPVSTTPVVYDPETGTWTAYPPDGSRTTYALSLEDLIAALPSTWSVGPSAGGS [r16_543_JUSTAS] | 0.567 ± 0.044 kcal/mol
10 | SAGGSAGGSAKEYIVRIKVRLKDGEEVEIEITVSEEELEELKKALESLPNIEEAEIEVFPLPSAGGSAGGSA [r18_157_TrROS_Hall] | 3.63 ± 0.066 kcal/mol
11 | SAGGSAGGSMYRVRIKVRNRETGEWLEIELEVPEGVTEEELKAALRELFPDAEIVDIEIEKLPSAGGSAGGS [r12_738_TrROS_Hall] | 4.12 ± 0.2 kcal/mol
12 | SAGGSAMKKIPKENVEKVIEFTDKNGKKITIVYNKKTGKAYIFDKKTKKVIEIDMTEDEIKKLLKSSAGGSA [r15_810_TrROS_Hall] | 1.89 ± 0.054 kcal/mol
13 | SFRIMASYDPDYGTITVYVQFQDPDNGEPIPAEEIAKEIAEQFPGAKIDDIEPNPDGWFKIEIKVPPGAFSA [r9_87_TrROS] | 2.46 ± 0.19 kcal/mol
14 | SAGGSMTISYDPSTGTVTITDPTVPLNTPRSITITFPGGETFTATLTPLPDNSATATYTVVPTAGASAGGSA [r2_89_JUSTAS] | 1.23 ± 0.16 kcal/mol
15 | SKKVKIVIKIKVEVTNKDGKKKTFEFTLVIELSEEEIEKLKKKIEDLLNELKKKYPNIKKVEITEIKILPSA [r9_436_TrROS_Hall] | 4.31 ± 0.62 kcal/mol
16 | SLEEKIKEAIENSPPNSEVIVPLPDDRTVKITVTPETVTGDGRRRLRIKVTITIYDPSGTKLGEKVLEIPLS [r1_386_JUSTAS] | 3.69 ± 0.16 kcal/mol

Row | Sequence | folding stability dG unfold
17 | STSTTITYPTLTISVEESVLPDGTPRYTVTLHLPEKGVSIPVEVDSAAEAEEAVREAIRKLLPDETVEEESA [r9_749_JUSTAS] | 2.23 ± 0.2 kcal/mol
18 | SAGGMSEEVRKLAEELAKKLNIEKVEVLPDGTVRITLKNGKKIEIKVEKVEVKEVKVEVEVEEVEEESAGGS [r16_296_TrROS_Hall] | 3.62 ± 0.49 kcal/mol
19 | SAGSMEALRALAEELAAEIAAAARAAGREVEVDITEVRPGEVRIRVTTTPPGGERTVEDIEIALPEERLSAG [r5_994_JUSTAS] | 1.48 ± 0.034 kcal/mol
20 | SAKKIILIKAESEEELKKAIEEAKKLAEEGKKVEIIIETPKGLILIEIDVKTKKIKIKNLETGEEIELESAG [r14_423_TrROS_Hall] | 1.19 ± 0.23 kcal/mol
21 | SAGEKKEKEKEKKKEEEEKKKKEEEKKKEEEKKKEKTLKLEFTLPDGSKIEIEMTVEELKKLGLSPEELSAG [r5_12_TrROS_Hall] | 1.03 ± 0.42 kcal/mol
22 | SAMMVVYYDPETGELVLVDPSEIPPELVEKGIEPVRLVPLRILVEVESEEEAEELARLFPDLVEVSLNPSAG [r14_638_TrMRF] | 1.88 ± 0.098 kcal/mol
23 | SAGGSAGGSAGGMTITIKVPPNMTEEQLRELARELARKLGLEDVEVRIERREDGTVRITFSAGGSAGGSAGG [r7_810_TrROS_Hall] | 4.85 ± 0.15 kcal/mol
24 | SAGGSAMTYTITLKTPGSQSLELSLDEKLKLLSQTIDPNTGVTTLTLEGDPEEAKKLEQEIKEKLASAGGSA [r15_662_JUSTAS] | 1.56 ± 0.17 kcal/mol
25 | SAMTPEFFETIKEASREGDIAAVLEAAEAIKTEFPDTGLTVDVVIEPREDDRFVIEVRVDYPPNLEGLASAG [r14_690_TrMRF] | -0.0704 ± 0.18 kcal/mol
26 | SMKKIVLIYPESVSPEEAEKIAEEILKKLGLKKGSPVTILPLSEYESNPEMRARIEEAKKKGADIIIEVKSA [r9_1147_JUSTAS] | 2.78 ± 0.17 kcal/mol
27 | SAGGSYLVEVVIEYPKQGVKKTVKLFVNNDPKKAEELAEDIIKELGYPDAKIEIKIIPVDPNDPRVLGSAGG [r13_682_JUSTAS] | 2.25 ± 0.057 kcal/mol
28 | SAGGSAGGSAGGVEIVIMFPRGMPPEQFAKMIAKWLRRQGLPPNVKVDIKIIPIDPDDMSAGGSAGGSAGGS [r10_746_TrROS] | 3.15 ± 0.18 kcal/mol
29 | SAGGGTRTINFDSPEDAEDAIEDWPDWDKVTISVPSNGEPQSIPLKIKPPPPPKYKRDENGKPEPEPDSAGG [r13_183_TrROS] | 2.65 ± 0.25 kcal/mol
30 | SEKPLVTLELELVVETEEQARAAVEALLAALPEEEIVDIRVEVEEVDVFENGELVGRRRRVRVTIVVRRPSA [r9_605_TrROS_Hall] | 4.41 ± 0.25 kcal/mol
31 | SAKLIRDLLRDHGFPIKNIDVQKNPNGKTYISIEIKMYTPEYKNDEGRPKPRPVEMTATFPADDLLDALSAG [r14_16_TrROS] | 0.676 ± 0.25 kcal/mol
